T1: natural Bet v 1 (Indoor Biotechnologies, # NA-BV1-1) (Betula verrucosa (Betula pendula), UniProt P15494 2-160, biotin labeled in the IgE blocking ELISA (Tables 12-14); unlabeled in the SPR of Table 18)
T1 construct: Bought natural allergen purified from birch pollen; also called nBet v 1; Biotinylated Bet v 1
T1 chain: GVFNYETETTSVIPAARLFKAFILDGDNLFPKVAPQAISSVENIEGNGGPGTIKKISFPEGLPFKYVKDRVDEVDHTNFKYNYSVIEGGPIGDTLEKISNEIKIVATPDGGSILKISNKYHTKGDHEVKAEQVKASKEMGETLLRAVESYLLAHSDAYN

T2: natural Bet v 1 (Betula verrucosa (Betula pendula), UniProt P15494 2-160)
T2 chain: T1 chain

B1: H4H16987P (antibody, human IgG4 S228P, kappa, V domains shown)
VH: EVQLVESGGGLVQPGGSLRLSCAASGFTVSSNSMSWVRQAPGEGLEWVSVIFSGGITYYSDSVKGRFTISRHNSKNTLYLQMNSLRTEDTAVYYCARHSNWNFDAFDIWGQGTMVTVSS
VL: DIQMTQSPSSLSASVGDRVTITCRASQSFDTYLNWYQQKPGKAPNLLIYATSSLQSGVPSRFSGSGSGTDFTLTISSLQPEDFGTYYCQQSYSIPYTFGQGTKLEIKR
notes: human IgG4; also called MAB4
B2: H4H17082P2 (antibody, human IgG4 S228P, kappa, V domains shown)
VH: QVQLVQSGAEVKKPGASVKVSCKASGYTFISYNIFWVRQATGQGLDWMGWMNPFRNNAGYAQKFQGRVTVTWDTSISTAYMELSSLSSEDTAIYYCAREHGSSWGFFDYWGQGTLVTVSS
VL: not shown
notes: Human IgG4; also called REGN5715; MAB2
B3: H4H17082P2 (antibody, human IgG4 S228P, kappa, V domains shown)
VH: B2 VH
VL: not shown
notes: human IgG4; also called REGN5715; MAB2

Assays:
[1] = target: T1, natural Bet v 1 (Indoor …); assay: blocking ELISA, captured IgE of donor 29718-MW, 1 ug/mL each antibody
[2] = target: T1, natural Bet v 1 (Indoor …); assay: blocking ELISA, captured IgE of donor 25414-CW, 1 ug/mL each antibody
[3] = target: T1, natural Bet v 1 (Indoor …); assay: blocking ELISA, captured IgE of donor 23939-MH, 1 ug/mL each antibody
[4] = target: T1, natural Bet v 1 (Indoor …); assay: blocking ELISA, captured IgE of donor 25340-RR, 1 ug/mL each antibody
[5] = target: T1, natural Bet v 1 (Indoor …); assay: dose-response blocking ELISA, captured IgE of donor 25609-MS, at 1 ug/mL each antibody
[6] = target: T1, natural Bet v 1 (Indoor …); assay: blocking ELISA, captured IgE of donor 23035-BL, 1 ug/mL each antibody
[7] = target: T1, natural Bet v 1 (Indoor …); assay: dose-response blocking ELISA, captured IgE of donor 25340-RR, at 1 ug/mL each antibody
[8] = target: T1, natural Bet v 1 (Indoor …); assay: blocking ELISA, captured IgE of donor 23658-MD, 1 ug/mL each antibody
[9] = target: T1, natural Bet v 1 (Indoor …); assay: blocking ELISA, captured IgE of donor 22627-MN, 1 ug/mL each antibody
[10] = target: T1, natural Bet v 1 (Indoor …); assay: dose-response blocking ELISA, captured IgE of donor 23939-MH, at 1 ug/mL each antibody
[11] = target: T1, natural Bet v 1 (Indoor …); assay: blocking ELISA, captured IgE of donor 25609-MS, 1 ug/mL each antibody
[12] = target: T1, natural Bet v 1 (Indoor …); assay: blocking ELISA, captured IgE of donor 25299-RJ, 1 ug/mL each antibody
[13] = target: T1, natural Bet v 1 (Indoor …); assay: blocking ELISA, captured IgE of donor 26532-CC, 1 ug/mL each antibody
natural Bet v 1 [14] = target: T2, natural Bet v 1; assay: cell-based or functional assay
natural Bet v 1 [15] = target: T2, natural Bet v 1; assay: SPR Biacore 4000, mAb captured on anti-human Fc, 25C;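 further: purified anti-Bet v 1 mAbs probed with natural Bet v 1 in HBS-ET buffer (HEPES, NaCl, EDTA, Tween-20) at pH 7.4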
Method: Equilibrium dissociation constants (KD) for natural Bet v 1 binding to purified anti-Bet v 1 monoclonal antibodies were determined using a real-time surface plasmon resonance biosensor (SPR-Biacore) on a Biacore 4000 instrument. All binding studies were performed in 10 mM HEPES, 150 mM NaCl, 3 mM EDTA, and 0.05% v/v surfactant Tween-20, pH 7.4 (HBS-ET) running buffer at 25° C. and 37° C. […] Association (kₐ) and dissociation (kd) rate constants were determined by fitting the real-time binding sensorgrams to a 1:1 binding model with mass transport limitation using Scrubber 2.0c curve-fitting software. Binding dissociation equilibrium constants (KD) and dissociative half-lives (t½) were calculated from the kinetic rate constants as:

natural Bet v 1 [16] = target: T2, natural Bet v 1; assay: SPR Biacore 4000, mAb captured on anti-human Fc, 37C;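 further: kinetic rate constants from SPR sensorgrams fitted to a 1:1 model with mass transport limitation, HBS-ET buffer pH 7.4, KD and t½ derived from the rate constants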

Row | Percent Blocking [1] [%] | Percent Blocking [2] [%] | Percent Blocking [3] [%] | Percent Blocking [4] [%] | Percent Blocking [5] [%] | Percent Blocking [6] [%] | Percent Blocking [7] [%] | Percent Blocking [8] [%] | Percent Blocking [9] [%] | Percent Blocking [10] [%] | Percent Blocking [11] [%] | Percent Blocking [12] [%] | Percent Blocking [13] [%] | blockade of basophil activation (phospho-Erk MFI in basophils of PBMCs from birch allergic donors, 100 pM natural Bet v 1) (natural Bet v 1 [14]) [%] | 100 nM natural Bet v 1 Bound (RU) (natural Bet v 1 [15]) | Kd (natural Bet v 1 [15]) [nM] | 100 nM natural Bet v 1 Bound (RU) (natural Bet v 1 [16]) | Kd (natural Bet v 1 [16]) [nM] | t½ (natural Bet v 1 [16]) [min] | Binder
1 | 13 | -4 | 16 | 15 | 21.6 | -46 | 11.1 | 27 | 12 | 19.6 | 16 | 9 | 4 |  |  |  |  |  |  | B1
2 |  |  |  |  |  |  |  |  |  |  |  |  |  | 70 | 72 | 1.09 | 83 | 2.43 | 6.3 | B2
3 | 49 | 38 | 79 | 81 | 56.4 | 52 | 82.7 |  |  | 82.9 | 51 | 66 | 74 |  |  |  |  |  |  | B3

From patent publication US20180346555A1 (Regeneron, published 2018)
